The text below walks through data of article PMC4769559 (BMC Veterinary Research, 2016).

B1: 6 × His-SUMO-VHH6 fusion protein (VHH)
VHH: QVQLVESGGGSVQAGGSLRLSCTASGFTFDDSDMVWYRQAPGNECEVVSYITSDGTTYHADSVKGRFTISQDNAKSTVYLQMNSLKPEDTAVYYCAADLVLESPSCEWSQGTLVTVSS
B2: VHH5 fused to the Gal4 activation domain (pAD-VHH, pGADT7-Rec) (VHH)
VHH: QVQLVESGGGLVQPGGSLKLSCAASGFTFSTNAMSWFRPAPGKERKWVSAIDAGGGNTYYDDSMKGRFTISKDNAKNTLYLQLNSLKSEDTAMYYCAKDPATVPTNRGQGTLVTVSS
B3: VHH4 fused to the Gal4 activation domain (pAD-VHH, pGADT7-Rec) (VHH)
VHH: QVQLVESGGGSVQAGGPLRLSCAVSGYSYSSVCMAWFRQAPGKEREAVAGIYTGGGNKYYADSVKGRFTISQDNTKNTLYLQMNSLKPEDTAMYYCAADLTVAACVPGRPQLTEEYNIWGQGTLVTVSS
B4: VHH7 fused to the Gal4 activation domain (pAD-VHH, pGADT7-Rec) (VHH)
VHH: QVQLVESGGGLVQPGGSLRLSCAASGFAFSIYAMSWVRQAPGKGLEWVSAINSGGGSEYYADSVKGRFTISRDNAKNTLYLQLNSLKTEDTAMYYCAKSTSDCSYSDPWCYALADFGYWGQGTQVTVSS
B5: VHH2 fused to the Gal4 activation domain (pAD-VHH, pGADT7-Rec) (VHH)
VHH: QVQLVESGGGSVQAGGSLKLSCAPPAGYIFSSCAMGWYRQAPGKEHELVSSIAINGTTVYADFVKGRFTIFQDNTKPTLYLQMNNLKTEDTAVYYCAAECTFSDHPYWGQGTLVTVSS
B6: VHH3 fused to the Gal4 activation domain (pAD-VHH, pGADT7-Rec) (VHH)
VHH: EVQLVESGGGSVQAGGSLRLSCTASGYTRCMGWFRQAPGKEREGVAIVVTGSPYYTDSVKDRFTISLDNAKNTVYLQMNSLKPEDTATYYCAADRSILGCRLFRLYEANYRGQGTLVTVSS
B7: VHH1 fused to the Gal4 activation domain (pAD-VHH, pGADT7-Rec) (VHH)
VHH: QVQLVESGGGSVQAGGSLTLSCAASGATDSSSCMGWFRQAPGKEREGVANIDSDGNTNYAESVMGRFTISQDNAKNTLYLQMNTLKPEDTAMYRCAADPGGSWCVFLLARENALDAWGQGTLVTVSS
B8: VHH6 fused to the Gal4 activation domain (pAD-VHH, pGADT7-Rec) (VHH)
VHH: QVQLVESGGGSVQAGGSLRLSCTASGFTFDDSDMVWYRQAPGNECEVVSYITSDGTTYHADSVKGRFTISQDNAKSTVYLQMNSLKPEDTAVYYCAADLVLESPSCEWSQGTLVTVSS

The first assay has as its target NDV HN glycoprotein in LaSota-infected DF-1 cells (Newcastle disease virus, La Sota, UniProt O90340, strain). The assay is described as follows: immunostaining of cells or tissue. Particulars: one partner purified.
Regarding B1, the binding result was “binds”.

A further assay addresses truncate haemagglutinin-neuraminidase (HN) 49–577 aa of NDV La Sota fused to the yeast GAL4 DNA-BD (Newcastle disease virus, La Sota, UniProt O90340, strain). The assay is described as follows: two-hybrid. Conditions: partners not purified.
For B2, the binding result is reported as “binds”. Consider B3, for which the binding result is on record as “binds”. B4: the binding result is “binds”. Same read-out and setting: next, B5: “binds”; B6: “binds”; B7: “binds”. B8: the binding result was “binds”.

Another assay concerns the target cell derived HN protein (pCAGGS-HN transfected 293 T cells) (Newcastle disease virus, strain not …, UniProt O90340). The assay is described as follows: pull-down. Particulars: one partner purified.
Consider B1, for which the binding result was “binds”.
